Measurements as given in patent US20240241109A1 (NATIONAL JEWISH HEALTH, published 2024).
Where two headings read alike, the source gives them in different places.

Key:
[1] = biological target: T1, wildtype SARS-COV-2 spike receptor binding domain (RBD) (SARS-COV-2 (wildtype), UniProt P0DTC2 320-541); experiment: SPR (Biacore)
[2] = biological target: T1, wildtype SARS-COV-2 spike receptor …

B1: Etesevimab (LY-CoV016) (antibody, V domains shown)
VH: EVQLVESGGGLVQPGGSLRLSCAASGFTVSSNYMSWVRQAPGKGLEWVSVIYSGGSTFYADSVKGRFTISRDNSMNTLFLQMNSLRAEDTAVYYCARVLPMYGDYLDYWGQGTLVTVSS
VL: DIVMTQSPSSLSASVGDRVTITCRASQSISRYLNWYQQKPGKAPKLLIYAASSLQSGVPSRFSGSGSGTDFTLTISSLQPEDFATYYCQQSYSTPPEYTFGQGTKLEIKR
**Q.** How did the Kd [1] turn out when B1 was run?
**A.** 6.8 nM

**Q.** What about the Kd [2] of the same binder?
**A.** 6.83 nM

**Q.** And the koff [2]?
**A.** 0.00988 s⁻¹

**Q.** What about the kon [2] of the same binder?
**A.** 1.46e+06 M⁻¹ s⁻¹
